Assay results from patent publication US20160264649A1.

Legend:
Assay in all cases: cell-based or functional assay
[1] = target: HIV-1 92WR009 Env (HIV-1)
[2] = target: HIV-1 MGRM-A-007 Env (HIV-1)
[3] = target: HIV-1 MGRM-A-011 Env (HIV-1)
[4] = target: HIV-1 Env of isolate MG RM-C-026 (subtype C) (HIV-1)
[5] = target: HIV-1 MGRM-AG-008 Env (HIV-1)
[6] = target: HIV-1 MGRM-A-006 Env (HIV-1)
[7] = target: HIV-1 92WR026 Env (HIV-1)
[8] = target: HIV-1 MGRM-A-002 Env (HIV-1)
[9] = target: HIV-1 93UG077 Env (HIV-1)
[10] = target: HIV-1 92UG031 Env (HIV-1)
[11] = target: HIV-1 MGRM-A-003 Env (HIV-1)
[12] = target: HIV-1 MGRM-A-005 Env (HIV-1)
[13] = target: HIV-1 92WR024 Env (HIV-1)
[14] = target: HIV-1 MGRM-AE-004 Env (HIV-1)
[15] = target: HIV-1 MGRM-AE-006 Env (HIV-1)
[16] = target: HIV-1 92WR020 Env (HIV-1)
[17] = target: HIV-1 MGRM-A-013 Env (HIV-1)
[18] = target: HIV-1 Env of isolate MG RM-C-025 (subtype C) (HIV-1)
HIV-1 VLGCA1 Env (HIV-1) = target: HIV-1 VLGCA1 Env (HIV-1)
[19] = target: HIV-1 MGRM-A-009 Env (HIV-1)
[20] = target: HIV-1 MGRM-AE-003 Env (HIV-1)
[21] = target: HIV-1 Env of isolate MG RM-C-024 (subtype C) (HIV-1)
[22] = target: HIV-1 Env of isolate MG RM-C-022 (subtype C) (HIV-1)
[23] = target: HIV-1 MGRM-AG-003 Env (HIV-1)
[24] = target: HIV-1 94UG103 Env (HIV-1)
[25] = target: HIV-1 MGRM-AG-012 Env (HIV-1)
[26] = target: HIV-1 Env of isolate MG RM-C-020 (subtype C) (HIV-1)
[27] = target: HIV-1 MGRM-AG-001 Env (HIV-1)
[28] = target: HIV-1 Env of isolate MG RM-C-027 (subtype C) (HIV-1)
[29] = target: HIV-1 Env of isolate MG RM-C-028 (subtype C) (HIV-1)
[30] = target: HIV-1 92WR021 Env (HIV-1)
[31] = target: HIV-1 MGRM-AE-008 Env (HIV-1)
[32] = target: HIV-1 MGRM-A-010 Env (HIV-1)
[33] = target: HIV-1 MGRM-AE-007 Env (HIV-1)
[34] = target: HIV-1 94KE105 Env (HIV-1)
[35] = target: HIV-1 MGRM-A-012 Env (HIV-1)
[36] = target: HIV-1 MGRM-AG-002 Env (HIV-1)
[37] = target: HIV-1 MGRM-A-004 Env (HIV-1)
[38] = target: HIV-1 92RW008 Env (HIV-1)
[39] = target: HIV-1 MGRM-AE-001 Env (HIV-1)
[40] = target: HIV-1 92UG037 Env (HIV-1)
[41] = target: HIV-1 MGRM-A-008 Env (HIV-1)
[42] = target: HIV-1 92TH021 Env (HIV-1)
[43] = target: HIV-1 MGRM-AG-005 Env (HIV-1)
[44] = target: HIV-1 MGRM-AE-002 Env (HIV-1)
[45] = target: HIV-1 MGRM-AG-013 Env (HIV-1)
[46] = target: HIV-1 MGRM-AG-006 Env (HIV-1)
[47] = target: HIV-1 MGRM-AG-009 Env (HIV-1)
[48] = target: HIV-1 Env of isolate MG RM-C-019 (subtype C) (HIV-1)
[49] = target: HIV-1 93WR029 Env (HIV-1)
[50] = target: HIV-1 MGRM-A-001 Env (HIV-1)
HIV-1 CMU02 Env (HIV-1) = target: HIV-1 CMU02 Env (HIV-1)
[51] = target: HIV-1 MGRM-A-014 Env (HIV-1)
[52] = target: HIV-1 MGRM-AE-005 Env (HIV-1)
[53] = target: HIV-1 MGRM-AG-011 Env (HIV-1)
[54] = target: HIV-1 Env of isolate MG RM-C-023 (subtype C) (HIV-1)

Sequence of 5345_I01 (PGT-137) (antibody) (VH): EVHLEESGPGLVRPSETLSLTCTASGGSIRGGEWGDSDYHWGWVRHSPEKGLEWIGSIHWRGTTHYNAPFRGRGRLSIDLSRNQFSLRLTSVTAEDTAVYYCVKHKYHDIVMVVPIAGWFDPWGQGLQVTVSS
Sequence of 5345_I01 (PGT-137) (antibody) (VL): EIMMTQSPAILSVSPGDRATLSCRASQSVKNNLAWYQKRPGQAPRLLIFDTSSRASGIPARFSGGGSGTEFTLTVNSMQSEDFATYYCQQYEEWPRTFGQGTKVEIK

## 5345_I01 (PGT-137) (antibody)
[1]
  IC50: > 50 µg/mL
[2]
  IC50: > 50 µg/mL
[3]
  IC50: > 50 µg/mL
[4]
  IC50: 0.011 µg/mL
[5]
  IC50: > 50 µg/mL
[6]
  IC50: > 50 µg/mL
[7]
  IC50: 0.092 µg/mL
[8]
  IC50: > 50 µg/mL
[9]
  IC50: > 50 µg/mL
[10]
  IC50: > 50 µg/mL
[11]
  IC50: > 50 µg/mL
[12]
  IC50: > 50 µg/mL
[13]
  IC50: > 50 µg/mL
[14]
  IC50: > 50 µg/mL
[15]
  IC50: > 50 µg/mL
[16]
  IC50: 0.005 µg/mL
[17]
  IC50: 49.2 µg/mL
[18]
  IC50: > 50 µg/mL
HIV-1 VLGCA1 Env (HIV-1)
  IC50: > 50 µg/mL
[19]
  IC50: > 50 µg/mL
[20]
  IC50: > 50 µg/mL
[21]
  IC50: > 50 µg/mL
[22]
  IC50: > 50 µg/mL
[23]
  IC50: > 50 µg/mL
[24]
  IC50: > 50 µg/mL
[25]
  IC50: > 50 µg/mL
[26]
  IC50: > 50 µg/mL
[27]
  IC50: > 50 µg/mL
[28]
  IC50: > 50 µg/mL
[29]
  IC50: > 50 µg/mL
[30]
  IC50: 3.52 µg/mL
[31]
  IC50: > 50 µg/mL
[32]
  IC50: > 50 µg/mL
[33]
  IC50: > 50 µg/mL
[34]
  IC50: 18.5 µg/mL
[35]
  IC50: > 50 µg/mL
[36]
  IC50: > 50 µg/mL
[37]
  IC50: > 50 µg/mL
[38]
  IC50: 0.148 µg/mL
[39]
  IC50: > 50 µg/mL
[40]
  IC50: > 50 µg/mL
[41]
  IC50: > 50 µg/mL
[42]
  IC50: > 50 µg/mL
[43]
  IC50: > 50 µg/mL
[44]
  IC50: > 50 µg/mL
[45]
  IC50: > 50 µg/mL
[46]
  IC50: 28.3 µg/mL
[47]
  IC50: > 50 µg/mL
[48]
  IC50: > 50 µg/mL
[49]
  IC50: > 50 µg/mL
[50]
  IC50: > 50 µg/mL
HIV-1 CMU02 Env (HIV-1)
  IC50: > 50 µg/mL
[51]
  IC50: 18.6 µg/mL
[52]
  IC50: > 50 µg/mL
[53]
  IC50: > 50 µg/mL
[54]
  IC50: 0.23 µg/mL

## 5147_N06 (PGT-130) (antibody)
[1]
  IC50: 1.27 µg/mL
[2]
  IC50: > 50 µg/mL
[3]
  IC50: > 50 µg/mL
[4]
  IC50: 0.036 µg/mL
[5]
  IC50: > 50 µg/mL
[6]
  IC50: > 50 µg/mL
[7]
  IC50: 0.037 µg/mL
[8]
  IC50: 0.01 µg/mL
[9]
  IC50: 21.4 µg/mL
[10]
  IC50: > 50 µg/mL
[11]
  IC50: > 50 µg/mL
[12]
  IC50: > 50 µg/mL
[13]
  IC50: > 50 µg/mL
[14]
  IC50: 2.43 µg/mL
[15]
  IC50: 0.009 µg/mL
[16]
  IC50: 0.039 µg/mL
[17]
  IC50: > 50 µg/mL
[18]
  IC50: > 50 µg/mL
HIV-1 VLGCA1 Env (HIV-1)
  IC50: > 50 µg/mL
[19]
  IC50: 0.308 µg/mL
[20]
  IC50: 0.337 µg/mL
[21]
  IC50: > 50 µg/mL
[22]
  IC50: 0.127 µg/mL
[23]
  IC50: 0.041 µg/mL
[24]
  IC50: 1.4 µg/mL
[25]
  IC50: > 50 µg/mL
[26]
  IC50: > 50 µg/mL
[27]
  IC50: > 50 µg/mL
[28]
  IC50: 0.008 µg/mL
[29]
  IC50: > 50 µg/mL
[30]
  IC50: 0.004 µg/mL
[31]
  IC50: > 50 µg/mL
[32]
  IC50: 0.005 µg/mL
[33]
  IC50: 0.083 µg/mL
[34]
  IC50: 0.004 µg/mL
[35]
  IC50: > 50 µg/mL
[36]
  IC50: > 50 µg/mL
[37]
  IC50: > 50 µg/mL
[38]
  IC50: 0.089 µg/mL
[39]
  IC50: 1 µg/mL
[40]
  IC50: 0.061 µg/mL
[41]
  IC50: > 50 µg/mL
[42]
  IC50: 0.009 µg/mL
[43]
  IC50: 0.54 µg/mL
[44]
  IC50: 1.53 µg/mL
[45]
  IC50: 0.01 µg/mL
[46]
  IC50: 0.009 µg/mL
[47]
  IC50: 9.46 µg/mL
[48]
  IC50: 0.01 µg/mL
[49]
  IC50: 34.3 µg/mL
[50]
  IC50: > 50 µg/mL
HIV-1 CMU02 Env (HIV-1)
  IC50: > 50 µg/mL
[51]
  IC50: 0.161 µg/mL
[52]
  IC50: 0.006 µg/mL
[53]
  IC50: > 50 µg/mL
[54]
  IC50: 0.151 µg/mL
